Earlier results on one substance are cited in publication PMC5860782.

In general, Kd refers to the concentration at which binding is half-saturated.

The target in the series is clathrin light chain (Saccharomyces cerevisiae) (UniProt P17891).
UniProt P17891, sequence (P17891 whole entry): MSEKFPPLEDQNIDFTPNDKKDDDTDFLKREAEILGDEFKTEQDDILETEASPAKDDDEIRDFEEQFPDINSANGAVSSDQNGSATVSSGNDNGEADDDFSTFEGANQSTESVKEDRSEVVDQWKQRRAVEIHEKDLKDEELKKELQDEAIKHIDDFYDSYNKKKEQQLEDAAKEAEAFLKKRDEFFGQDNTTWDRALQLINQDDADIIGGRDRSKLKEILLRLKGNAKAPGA

As for “clathrin heavy chain (from UniProt P22137)”, the Kd was 1 nM.
